Seven molecules from patent publication US20180036441A1 (Dana-Farber, published 2018) can be followed below.

Test [1] deals with T1, MUC1 on HCT116/MUC1 cells (UniProt P15941 24-1255, limits assumed).
T1 construct: whole, on cells; also called MUC1 overexpressed cell line
Put plainly: FACS titration on HCT116/MUC1 cells. On the procedure:
(§1) To assess cell binding, 2×10⁵ HCT116/MUC1 cells per well were washed with PBS twice and incubated in 200 μl of serial dilutions of chimeric or humanized antibodies for 1 hour at room temperature. After washing 3 times with PBS, secondary antibody (2 μg/ml Alexa Flour®488 goat anti-human IgG) was added to cells and incubated for 30 minutes at room temperature. After washing with PBS, cells were analyzed by using FACSCalibur (BD Bioscience, San Jose, Calif.) and Flowjo software.

Test [2] has as its target T1, MUC1 on HCT116/MUC1 cells. Put plainly: FACS titration, HCT116/MUC1 cells, antibody at 125 nM. The protocol: as §1
Test [3] addresses T1, MUC1 on HCT116/MUC1 cells. Put plainly: FACS titration, HCT116/MUC1 cells, antibody at 250 nM. On the procedure:
as §1

The target of test [4] is T1, MUC1 on HCT116/MUC1 cells. Put plainly: FACS titration, HCT116/MUC1 cells, antibody at 500 nM. The protocol:
as §1

Test [5] concerns the target T1, MUC1 on HCT116/MUC1 cells. Put plainly: FACS titration, HCT116/MUC1 cells, antibody at 62.5 nM. On the procedure:
as §1

The next test concerns the target T2, MUC1-SEA-His protein (UniProt P15941 1039-1148, limits assumed).
T2 construct: domain: SEA; Recombinant antigen used for ELISA coating and as Biacore analyte; also called MUC-SEA-His; antigen protein; not shown: His tag
T2 sequence (looked up): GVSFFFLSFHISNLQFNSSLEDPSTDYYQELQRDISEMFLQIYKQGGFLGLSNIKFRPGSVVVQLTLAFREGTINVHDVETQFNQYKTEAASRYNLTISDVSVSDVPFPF
Kind of test: SPR Biacore T200, antibody captured, antigen as analyte. The protocol: Antibody affinity was determined using a Surface Plasmon Resonance (SPR) biosensor, Biacore T200 (GE Healthcare). Antibody was immobilized on the sensor chip through Fc capture method. Antigen protein was used as the analyte. The data of dissociation (kd) and association (ka) rate constants were obtained using Biacore T200 evaluation software. The apparent equilibrium dissociation constants (KD) were calculated from the ratio of kd over ka. For affinity ranking, twenty-five humanized antibodies plus chimericantibody were injected and captured on sensor chip individually. The antibodies were ranked based on their dissociation rates (kd).
Background: Surface plasmon resonance follows binding to a sensor surface in real time, without labels.

The target of test [6] is T1, MUC1 on HCT116/MUC1 cells. Kind of test: FACS titration, HCT116/MUC1 cells, antibody at 0.244 nM. The protocol: as §1
Test [7] concerns the target T1, MUC1 on HCT116/MUC1 cells. Put plainly: FACS titration, HCT116/MUC1 cells, antibody at 0.488 nM. The protocol:
as §1

Test [8] deals with T1, MUC1 on HCT116/MUC1 cells. Put plainly: FACS titration, HCT116/MUC1 cells, antibody at 0.977 nM. On the procedure: as §1
In test [9] the target is T1, MUC1 on HCT116/MUC1 cells. Kind of test: FACS titration, HCT116/MUC1 cells, antibody at 1.953 nM. On the procedure: as §1
The target in test [10] is T1, MUC1 on HCT116/MUC1 cells. Put plainly: FACS titration, HCT116/MUC1 cells, antibody at 3.906 nM. The protocol: as §1
Test [11] deals with T1, MUC1 on HCT116/MUC1 cells. Put plainly: FACS titration, HCT116/MUC1 cells, antibody at 31.25 nM. On the procedure: as §1
Test [12] concerns the target T1, MUC1 on HCT116/MUC1 cells. Put plainly: FACS titration, HCT116/MUC1 cells, antibody at 7.812 nM. On the procedure:
as §1

For test [13], the target named is T1, MUC1 on HCT116/MUC1 cells. Kind of test: FACS titration, HCT116/MUC1 cells, antibody at 15.625 nM. The protocol:
as §1

T1 sequence (P15941 24-1255 limits assumed): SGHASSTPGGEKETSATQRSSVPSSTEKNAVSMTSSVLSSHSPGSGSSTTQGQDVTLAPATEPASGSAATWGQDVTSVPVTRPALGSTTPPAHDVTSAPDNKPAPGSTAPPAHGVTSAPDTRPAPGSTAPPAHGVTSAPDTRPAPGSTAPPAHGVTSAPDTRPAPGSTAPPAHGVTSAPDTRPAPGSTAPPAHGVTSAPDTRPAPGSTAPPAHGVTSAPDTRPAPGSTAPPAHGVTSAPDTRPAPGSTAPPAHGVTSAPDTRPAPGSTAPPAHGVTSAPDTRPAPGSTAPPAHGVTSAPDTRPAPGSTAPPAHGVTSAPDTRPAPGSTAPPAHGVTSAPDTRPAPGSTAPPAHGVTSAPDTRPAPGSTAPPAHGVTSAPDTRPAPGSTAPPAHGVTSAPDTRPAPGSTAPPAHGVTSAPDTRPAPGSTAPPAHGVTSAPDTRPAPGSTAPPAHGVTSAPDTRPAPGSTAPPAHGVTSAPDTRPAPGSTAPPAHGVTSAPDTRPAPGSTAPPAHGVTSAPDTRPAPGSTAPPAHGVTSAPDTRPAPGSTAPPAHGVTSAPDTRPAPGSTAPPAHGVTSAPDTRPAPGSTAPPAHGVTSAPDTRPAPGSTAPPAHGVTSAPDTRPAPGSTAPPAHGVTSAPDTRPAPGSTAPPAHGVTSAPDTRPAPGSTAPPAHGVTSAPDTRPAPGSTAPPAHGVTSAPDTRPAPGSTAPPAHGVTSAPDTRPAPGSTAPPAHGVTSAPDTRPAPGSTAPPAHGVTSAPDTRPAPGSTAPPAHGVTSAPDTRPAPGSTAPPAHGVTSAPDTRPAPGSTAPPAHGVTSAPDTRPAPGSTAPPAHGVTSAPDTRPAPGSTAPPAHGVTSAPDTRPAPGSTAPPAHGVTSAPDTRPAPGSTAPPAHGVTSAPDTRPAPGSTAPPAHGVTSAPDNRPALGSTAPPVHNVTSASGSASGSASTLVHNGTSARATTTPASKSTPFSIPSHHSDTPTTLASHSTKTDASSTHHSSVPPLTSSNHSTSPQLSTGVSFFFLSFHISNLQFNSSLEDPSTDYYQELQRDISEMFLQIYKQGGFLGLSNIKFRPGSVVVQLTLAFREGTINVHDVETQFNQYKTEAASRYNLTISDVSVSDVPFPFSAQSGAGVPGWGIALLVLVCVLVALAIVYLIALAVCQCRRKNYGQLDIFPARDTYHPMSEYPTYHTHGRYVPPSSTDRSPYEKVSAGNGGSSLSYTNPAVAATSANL

B1: VH1 + VL1 (antibody, V domains shown)
VH: QVQLVQSGAEVKKPGSSVKVSCKASGYAFSNFWMNWVRQAPGQGLEWMGQIYPGDGDTNYNGKFKGRVTITADKSTSTAYMELSSLRSEDTAVYYCARSYYRSAWFAYWGQGTLVTVSS
VL: EIVLTQSPDFQSVTPKEKVTITCRASQSIGTSIHWYQQKPDQSPKLLIKYASESISGVPSRFSGSGSGTDFTLTINSLEAEDAATYYCQQSNNWPLTFGQGTKVEIK
notes: Humanized IgG expressed in HEK293; also called humanized antibody VH1+VL1
A word on the EC50: it is the concentration that produces a half-maximal response. Usually koff stands for the rate constant with which the complex falls apart. Read a high koff as a short-lived complex. In [1], B1 showed a concentration for a half-maximal effect (EC50) of 30.3 nM. For the same molecule, the geometric mean came to 332 in test [2]; 363 in [3]; 351 in test [4]; 290 in test [5]; 2.72 in [6]; 3 in [7]. Further, the geometric mean in test [8] is 3.17; in [9] it was 5.68; in test [10] it was 9.54; in test [11], 185; in test [12], 23.1; in [13] it was 68.7. Also, in the test with MUC1-SEA-His protein, the koff is 0.0021 s⁻¹.

B2: VH2 + VL3 (antibody, V domains shown)
VH: QVQLVQSGAEVKKPGASVKVSCKASGYAFSNFWMNWVRQAPGQGLEWMGQIYPGDGDTNYNGKFKGRVTMTRDTSTSTVYMELSSLRSEDTAVYYCARSYYRSAWFAYWGQGTLVTVSS
VL: EIVLTQSPATLSLSPGERATLSCRASQSIGTSIHWYQQKPGQAPRLLIYYASESISGIPARFSGSGSGTDFTLTISSLEPEDFAVYYCQQSNNWPLTFGGGTKVEIK
notes: Humanized IgG expressed in HEK293; also called humanized antibody VH2+VL3
In [1], B2 came in with a concentration for a half-maximal effect (EC50) of 45.4 nM. In addition, the geometric mean in test [2] came to 147; in test [3] it was 167; in test [4] it was 178; in test [5], 124; in test [6], 2.73; in test [7], 2.74. The geometric mean in test [8] was determined as 2.83; in test [9], 3.25; in test [10], 4.03; in [11], 60.4; in test [12] it was 11.8; in test [13], 26.2. For the same molecule, in the test with MUC1-SEA-His protein, the koff was found to be 0.0124 s⁻¹.

B3: VH2 + VL4 (antibody, V domains shown)
VH: QVQLVQSGAEVKKPGASVKVSCKASGYAFSNFWMNWVRQAPGQGLEWMGQIYPGDGDTNYNGKFKGRVTMTRDTSTSTVYMELSSLRSEDTAVYYCARSYYRSAWFAYWGQGTLVTVSS
VL: AIQLTQSPSSLSASVGDRVTITCRASQSIGTSIHWYQQKPGKAPKLLIYYASESISGVPSRFSGSGSGTDFTLTISSLQPEDFATYYCQQSNNWPLTFGGGTKVEIK
notes: Humanized IgG expressed in HEK293; also called humanized antibody VH2+VL4
In test [1], B3 displayed a concentration giving a half-maximal response (EC50) of 41.3 nM. Moreover, the geometric mean in test [2] was found to be 188; in test [3], 216; in [4] it was 212; in [5], 161; in [6] it was 2.88; in test [7], 3.16. In addition, the geometric mean in [8] was determined as 3.76; in test [9], 5.22; in test [10] it was 9.37; in test [11] it was 74.6; in test [12], 19; in [13] it was 28.4. This molecule also showed an off-rate constant (koff) in the test with MUC1-SEA-His protein of 0.00741 s⁻¹.

B4: VH3 + VL4 (antibody, V domains shown)
VH: QVQLVQSGAEVKKPGASVKVSCKASGYAFSNFWMNWVRQAPGQGLEWMGQIYPGDGDTNYNGKFKGRVTMTRDTSISTAYMELSRLRSDDTAVYYCARSYYRSAWFAYWGQGTLVTVSS
VL: AIQLTQSPSSLSASVGDRVTITCRASQSIGTSIHWYQQKPGKAPKLLIYYASESISGVPSRFSGSGSGTDFTLTISSLQPEDFATYYCQQSNNWPLTFGGGTKVEIK
notes: Humanized IgG expressed in HEK293; also called humanized antibody VH3+VL4
In [1], B4 yielded an EC50 of 33.1 nM. Further, the geometric mean in test [2] came out at 208; in test [3], 227; in test [4], 235; in test [5], 171; in test [6], 9.23; in [7], 19.5. In addition, the geometric mean was determined as 25.6 in test [8]; 19 in [9]; 12 in [10]; 130 in test [11]; 22.2 in test [12]; 54.6 in [13]. The same molecule came in with a koff with MUC1-SEA-His protein of 0.00902 s⁻¹.

B5: VH1 + VL4 (antibody, V domains shown)
VH: QVQLVQSGAEVKKPGSSVKVSCKASGYAFSNFWMNWVRQAPGQGLEWMGQIYPGDGDTNYNGKFKGRVTITADKSTSTAYMELSSLRSEDTAVYYCARSYYRSAWFAYWGQGTLVTVSS
VL: AIQLTQSPSSLSASVGDRVTITCRASQSIGTSIHWYQQKPGKAPKLLIYYASESISGVPSRFSGSGSGTDFTLTISSLQPEDFATYYCQQSNNWPLTFGGGTKVEIK
notes: Humanized IgG expressed in HEK293; also called humanized antibody VH1+VL4
Take B5: in test [1], the 50% effective concentration (EC50) was 31.9 nM. For the same molecule, the geometric mean in test [2] came to 132; in [3], 142; in test [4], 141; in [5] it was 111; in [6], 2.82; in test [7], 2.85. For the same molecule, the geometric mean worked out at 2.86 in [8]; 3.16 in test [9]; 4.1 in test [10]; 73.3 in [11]; 6.83 in [12]; 27.7 in [13]. The molecule also came in with an off-rate (koff) in the test with MUC1-SEA-His protein of 0.0124 s⁻¹.

B6: VH3 + VL1 (antibody, V domains shown)
VH: QVQLVQSGAEVKKPGASVKVSCKASGYAFSNFWMNWVRQAPGQGLEWMGQIYPGDGDTNYNGKFKGRVTMTRDTSISTAYMELSRLRSDDTAVYYCARSYYRSAWFAYWGQGTLVTVSS
VL: EIVLTQSPDFQSVTPKEKVTITCRASQSIGTSIHWYQQKPDQSPKLLIKYASESISGVPSRFSGSGSGTDFTLTINSLEAEDAATYYCQQSNNWPLTFGQGTKVEIK
notes: Humanized IgG expressed in HEK293; also called humanized antibody VH3+VL1
Take B6: the 50% effective concentration (EC50) in [1] worked out at 28.7 nM. The geometric mean in test [2] is 305; in [3] it was 321; in test [4], 334; in test [5] it was 263; in test [6], 3.1; in [7] it was 3.81. In addition, the geometric mean in test [8] is 6.94; in test [9], 11.4; in test [10], 16.3; in test [11], 192; in test [12] it was 36; in test [13], 71.3. Further, the koff with MUC1-SEA-His protein worked out at 0.0015 s⁻¹.

B7: VH4 + VL1 (antibody, V domains shown)
VH: QVQLVQSGAEVKKPGATVKISCKVSGYAFSNFWMNWVQQAPGKGLEWMGQIYPGDGDTNYNGKFKGRVTITADTSTDTAYMELSSLRSEDTAVYYCARSYYRSAWFAYWGQGTLVTVSR
VL: EIVLTQSPDFQSVTPKEKVTITCRASQSIGTSIHWYQQKPDQSPKLLIKYASESISGVPSRFSGSGSGTDFTLTINSLEAEDAATYYCQQSNNWPLTFGQGTKVEIK
notes: Humanized IgG expressed in HEK293; also called humanized antibody VH4+VL1
Turning to B7, the response in test [1] was half-maximal at 36.6 nM (EC50). Also, the geometric mean in test [2] is 225; in test [3], 250; in test [4] it was 253; in [5] it was 188; in test [6] it was 2.54; in [7] it was 2.54. The geometric mean in test [8] was determined as 2.51; in [9], 2.94; in [10], 4.22; in test [11] it was 113; in test [12], 8.87; in [13], 27. For the same molecule, the koff with MUC1-SEA-His protein was 0.00261 s⁻¹.
